Data reported in article PMC2713185.

Molecular target: TMR-PDZ(C338) domain of Dvl1 (mouse) (UniProt P51141)
Experiment: other fluorescence titration

Sequence of UniProt P51141 (P51141 251-341): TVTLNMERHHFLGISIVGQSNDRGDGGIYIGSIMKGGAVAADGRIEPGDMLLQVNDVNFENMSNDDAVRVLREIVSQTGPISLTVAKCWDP

Substance	Kd
tripeptide VWV	2 µM
tripeptide VVV	71 µM
